Source: paper PMC11922769

Target: T1, His-MBP-SPO11;TOP6BL-Flag (Mus musculus;Mus musculus, UniProt Q9WTK8;J3QMY9 1-396;1-579, |)
T1 sequence 1: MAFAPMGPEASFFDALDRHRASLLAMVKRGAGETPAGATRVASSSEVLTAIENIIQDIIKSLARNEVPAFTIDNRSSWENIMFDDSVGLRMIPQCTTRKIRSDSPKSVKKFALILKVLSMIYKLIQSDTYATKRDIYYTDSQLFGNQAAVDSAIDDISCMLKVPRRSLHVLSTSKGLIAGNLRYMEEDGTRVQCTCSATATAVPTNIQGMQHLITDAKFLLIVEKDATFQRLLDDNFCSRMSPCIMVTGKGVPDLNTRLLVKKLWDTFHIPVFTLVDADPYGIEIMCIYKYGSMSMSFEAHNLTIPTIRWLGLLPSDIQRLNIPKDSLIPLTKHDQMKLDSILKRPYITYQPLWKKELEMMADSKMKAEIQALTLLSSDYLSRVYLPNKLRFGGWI
T1 sequence 2: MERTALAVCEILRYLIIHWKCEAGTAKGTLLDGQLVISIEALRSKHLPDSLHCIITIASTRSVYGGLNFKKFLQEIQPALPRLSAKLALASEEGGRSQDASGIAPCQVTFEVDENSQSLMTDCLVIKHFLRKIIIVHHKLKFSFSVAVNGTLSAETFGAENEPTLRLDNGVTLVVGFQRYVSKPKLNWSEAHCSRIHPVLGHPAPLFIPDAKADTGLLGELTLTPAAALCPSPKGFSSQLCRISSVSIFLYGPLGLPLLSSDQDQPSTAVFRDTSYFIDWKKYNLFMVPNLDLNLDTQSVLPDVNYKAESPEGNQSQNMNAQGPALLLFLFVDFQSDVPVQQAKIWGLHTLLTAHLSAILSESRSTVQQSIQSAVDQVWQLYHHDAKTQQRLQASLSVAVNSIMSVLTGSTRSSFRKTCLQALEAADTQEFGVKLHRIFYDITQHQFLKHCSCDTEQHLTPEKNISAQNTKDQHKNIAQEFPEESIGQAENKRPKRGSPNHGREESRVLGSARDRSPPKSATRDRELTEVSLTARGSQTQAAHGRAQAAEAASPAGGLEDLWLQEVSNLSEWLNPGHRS
Test: EMSA

B1: 46bp dsDNA, double 5' overhang (dsDNA)
DNA 1: TAGACGTCCTCGCATCAAGATGCTGCTGCCATCTTATATTTTCTATAC
DNA 2: TAGTATAGAAAATATAAGATGGCAGCAGCATCTTGATGCGAGGACGTC
Question: For B1, which Kd is on record?
Answer: Its Kd is 20.8 ± 0.39 nM.
